This passage reports inhibition, Km and Vmax results from ChEMBL document CHEMBL3769311, “The natural flavone fukugetin as a mixed-type inhibitor for human tissue kallikreins” (Bioorg Med Chem Lett, 2016).

The source made the active and inactive calls. The calls are words filed in the database; no cut-off is given here.

The target of series [1] is Kallikrein-1 (Homo sapiens) (UniProt P06870). As to conditions: 2 to 10 uM.
Series [2] concerns O=C1CC(c2ccc(O)c(O)c2)Oc2c1c(O)cc(O)c2[C@@H]1C(=O)c2c(O)cc(O)cc2O[C@H]1c1ccc(O)cc1. As to conditions: Homo sapiens; 2 uM.
Description: Mixed-type inhibition of human tissue kallikrein-1 expressed in baculovirus infected insect cells using Abz-KLRSSQ-EDDnp as substrate assessed as substrate Km at 2 uM by Lineweaver-Burk plot analysis
For series [3] the test system is unchanged. As to conditions: Homo sapiens; 4 uM.
Description: Mixed-type inhibition of human tissue kallikrein-1 expressed in baculovirus infected insect cells using Abz-KLRSSQ-EDDnp as substrate assessed as substrate Km at 4 uM by Lineweaver-Burk plot analysis
The test system is the same in series [4]. As to conditions: Homo sapiens; 10 uM.
Description: Mixed-type inhibition of human tissue kallikrein-1 expressed in baculovirus infected insect cells using Abz-KLRSSQ-EDDnp as substrate assessed as substrate Km at 10 uM by Lineweaver-Burk plot analysis
Series [5] has the same test system. As to conditions: Homo sapiens; 10 uM. This is another data set of the same source.
Description: Mixed-type inhibition of human tissue kallikrein-1 expressed in baculovirus infected insect cells using Abz-KLRSSQ-EDDnp as substrate assessed as enzyme Vmax at 10 uM by Lineweaver-Burk plot analysis
Series [6] shares this test system. As to conditions: Homo sapiens; 2 uM. This is another data set of the same source.
Description: Mixed-type inhibition of human tissue kallikrein-1 expressed in baculovirus infected insect cells using Abz-KLRSSQ-EDDnp as substrate assessed as enzyme Vmax at 2 uM by Lineweaver-Burk plot analysis
The test system is the same in series [7]. As to conditions: Homo sapiens; 4 uM. The source holds these as a separate data set.
Description: Mixed-type inhibition of human tissue kallikrein-1 expressed in baculovirus infected insect cells using Abz-KLRSSQ-EDDnp as substrate assessed as enzyme Vmax at 4 uM by Lineweaver-Burk plot analysis
Series [8] shares this test system. As to conditions: Homo sapiens; 8 uM.
Description: Mixed-type inhibition of human tissue kallikrein-1 expressed in baculovirus infected insect cells using Abz-KLRSSQ-EDDnp as substrate assessed as substrate Km at 8 uM by Lineweaver-Burk plot analysis
For series [9] the test system is unchanged. As to conditions: Homo sapiens; 8 uM. The source holds these as a separate data set.
Description: Mixed-type inhibition of human tissue kallikrein-1 expressed in baculovirus infected insect cells using Abz-KLRSSQ-EDDnp as substrate assessed as enzyme Vmax at 8 uM by Lineweaver-Burk plot analysis

As to `O=C1CC(c2ccc(O)c(O)c2)Oc2c1c(O)cc(O)c2[C@@H]1C(=O)c2c(O)cc(O)cc2O[C@H]1c1ccc(O)cc1` (some centres undefined), the inhibition result in series [1] is “Active”.

A word on the Km: it is the substrate concentration at which the rate is half of its maximum. A word on the Vmax: it is the top rate of the reaction or transport when substrate is in excess. On to Kallikrein-1 (Homo sapiens), P06870, for which the Km in [2] came out at 0.8 µM; in [3] it was 0.85 µM; in [4], 1.12 µM; in [8], 0.93 µM. Further, the Vmax in [5] is 160 µM/s; in [6], 387 µM/s; in [7], 285 µM/s; in [9], 201 µM/s.
